Substrate in this data set: C[C@H](NC(=O)CCC(=O)O)C(=O)N[C@@H](C)C(=O)N1CCC[C@H]1C(=O)N[C@@H](Cc1ccccc1)C(=O)Nc1ccc([N+](=O)[O-])cc1
As to the kind of experiment: Hydrolysis of succinyl-L-Ala-L-Ala-L-Pro-L-Phe-p-nitroanilide, kinetic parameters. The class given is biochemical, Bacillus lentus. To be noted: pH 7.5, 0.1 M sodium phosphate, 0.5 M NaCl, 1% DMSO, 25° C. The protocol: Activity, including the kinetic parameters kcat, KM, and kcat /KM were measured for hydrolysis of the synthetic peptide substrate succinyl-L-Ala-L-Ala-L-Pro-L-Phe-p-nitroanilide using the method described in Bonneau, P. et al. (1991) J. Am. Chem. Soc., 113(3):1030. Briefly, a small aliquot of subtilisin variant stock solution was added to a 1 cm cuvette containing substrate dissolved in 0.1 M sodium phosphate buffer, pH 7.5, containing 0.5 M NaCl and 1% DMSO, and thermostated at 25° C. or similarly at pH 8.6, 0.1 M tris buffer containing 0.05% Tween™80 and 1% DMSO. The reaction progress was followed spectrophotometrically by monitoring the absorbance of the reaction product p-nitroaniline at 410 nm using a Perkin Elmer λ2 spectrophotometer (Δε410 8800 M^-1 cm^-1).
The modified enzymes were prepared as described above after site-directed mutagenesis to replace the amino acid of interest with a cysteine. The kinetic parameters were determined at pH 7.5 as described above. The precursor protease was a Bacillus lentus subtilisin (SBL-WT).
To examine the effects of chemical modification on the pH profile of SBL, seven modified N62C mutants were made as described above. 0.02M ethylene diamine buffers of ionic strength 0.05M (adjusted with KCl) were employed with 1.25×10^-4 M succinyl-AAPF-pNA substrate and Kcat /KM measurements were performed as described above. Kcat /KM reflects the pKa of His64, part of the catalytic triad for SBL, in the free enzyme and is unaffected by nonproductive binding modes. Fersht, A. E. (1985) Enzyme Structure and Mechanism 2 ed., Freeman (New York). pKa was calculated using Graphit (McGeary & Associates, Middletown Conn.). The shift in pKa reflects a shift in the pH profile of SBL. Representative pH profiles for SBL N62C-Scylcohexyl (N62C-Scy) and SBL-WT are shown in FIG. 3 ([E]=1×10^-7 to 5×10^-8 M at 25° C.). Points were done in duplicate.

B1: Bacillus lentus subtilisin, wild type (SBL-WT) (Lederbergia lenta) (protein)
chain: AQSVPWGISRVQAPAAHNRGLTGSGVKVAVLDTGISTHPDLNIRGGASFVPGEPSTQDGNGHGTHVAGTIAALNNSIGVLGVAPSAELYAVKVLGASGSGSVSSIAQGLEWAGNNGMHVANLSLGSPSPSATLEQAVNSATSRGVLVVAASGNSGAGSISYPARYANAMAVGATDQNNNRASFSQYGAGLDIVAPGVNVQSTYPGSTYASLNGTSMATPHVAGAAALVKQKNPSWSNVQIRNHLKNTATSLGSTNLYGSGLVNAEAATR
notes: made in house; host or cells: B. subtilis
Regarding B1, under “other: SBL-WT”, the Km (usually the concentration of substrate that gives half-maximal velocity) came to 550 µM; the turnover number (kcat) (in general, the number of substrate molecules converted per active site and unit of time at saturation) was determined as 48 s⁻¹; the kcat/Km – broadly, the turnover number divided by the Michaelis constant – came out at 87 s⁻¹ mM⁻¹.

B2: Bacillus lentus subtilisin (SBL) variant N62C (Lederbergia lenta; N60C) (protein)
chain: AQSVPWGISRVQAPAAHNRGLTGSGVKVAVLDTGISTHPDLNIRGGASFVPGEPSTQDGCGHGTHVAGTIAALNNSIGVLGVAPSAELYAVKVLGASGSGSVSSIAQGLEWAGNNGMHVANLSLGSPSPSATLEQAVNSATSRGVLVVAASGNSGAGSISYPARYANAMAVGATDQNNNRASFSQYGAGLDIVAPGVNVQSTYPGSTYASLNGTSMATPHVAGAAALVKQKNPSWSNVQIRNHLKNTATSLGSTNLYGSGLVNAEAATR
notes: as for B1
Take B2: under “other: N62C”, the Km amounted to 1490 µM, the kcat worked out at 61 s⁻¹ and the kcat/Km is 41 s⁻¹ mM⁻¹.

The record behind these values is US6277617A, “Chemically modified enzymes” (Genencor International, Inc., priority 1997, dated 2001).
